Changes are numbered by the printed parent chain.
T1: rat-his
T1 construct: soluble analyte of the Biacore runs; also called rSCRx91-his; rBMPR1B-CHis
T1 chain: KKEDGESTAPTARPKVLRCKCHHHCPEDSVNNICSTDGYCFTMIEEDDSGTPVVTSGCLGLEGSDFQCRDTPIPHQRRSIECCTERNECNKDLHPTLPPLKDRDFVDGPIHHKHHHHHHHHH

T2: hBMPR1B-His (human BMPR1B extracellular domain, residues K14 to R126, with C-terminal 9x-Histidine tag) (human, UniProt O00238 14-126)
T2 construct: Residues K14-R126 are counted on the hBMPR1B ORF (NM_001203); The IgK signal peptide of the vector is left out; also called hBMPR1B-CHis; human BMPR1B-his
T2 sequence: T1 chain with A12P, T51L, D102N, K113R

T3: hBMPR1B-Fc (human BMPR1B extracellular domain, residues K14 to R126, fused to human IgG2 Fc) (human, UniProt O00238 14-126)
T3 construct: also called BMPR1B fused to human Fc fragment; not shown: human IgG2 Fc protein
T3 sequence: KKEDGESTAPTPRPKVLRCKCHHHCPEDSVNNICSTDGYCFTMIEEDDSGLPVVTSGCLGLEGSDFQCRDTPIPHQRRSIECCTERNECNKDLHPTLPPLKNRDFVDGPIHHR

T4: human BMPR1B coated on MSD plates (construct not stated) (human, UniProt O00238 14-126, limits assumed)
T4 construct: also called BMPR1B receptor
T4 sequence: T3 sequence

B1: SC91.20 (antibody, V domains shown)
VH: QVQLQQPGAEVVRPGASLKLSCKASGYTFTSYWMQWIKQRPGQGLEWIGEIDPSDNYTMYNQKFKGKATLTVDTSSSTAYMQLSSLTSEDSAVYFCARFGFYVDYWGQGTTLTVSS
VL: DVVMTQTPLSLPVSLGDQASISCRSSQSLVHSTGNTYLHWYLQKPGQSPNLLIYKVSNRFSGVPDRFSGSGSGTDFTLKISRVEAEDLGVYFCSQSTHVPFTFGSGTKLEIK
B2: SC91.119 (antibody, V domains shown)
VH: QVTLKESGPGILQPSQTLSLTCSFSGLSLSTPGMSVGWIRQPSGKGLEWLAHIWWNDDKSYNPALKSRLTISKDTSNNQVFLKIASVVTADTATYYCARGDRFAYWGQGTLVTVSA
VL: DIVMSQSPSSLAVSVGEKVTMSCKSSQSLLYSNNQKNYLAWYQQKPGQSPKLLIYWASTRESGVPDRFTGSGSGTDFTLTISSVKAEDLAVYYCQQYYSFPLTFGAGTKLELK
B3: SC91.146 (antibody, V domains shown)
VH: QVQLQQPGAELVKPGASVKLSCKASGYTFTSYWMHWVKQRPGQGLEWIGDIDPSDRYTNYNQKFKGKATLTVDTTSSTAYMQLSSLTSEDSAVYYCAISGWDYFDYWGQGTTLTVSS
VL: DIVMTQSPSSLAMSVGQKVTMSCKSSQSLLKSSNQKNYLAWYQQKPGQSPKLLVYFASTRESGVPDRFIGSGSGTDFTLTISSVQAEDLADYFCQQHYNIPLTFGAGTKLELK
B4: SC91.160 (antibody, V domains shown)
VH: QIQLVQSGPELKKPGETVKISCKASGYTFTTYGMNWVKQAPGKGLKWMGWINTYSGVPSSADDFKGRFAFSLETSASTAYLLINNLKNEDTATYFCARSELRNWYFDVWGTGTTVTVSS
VL: SFVMTQTPKFLLVSAGDRVTITCKASQNMGHDVAWYQQKPGQSPKLLIYSASNRYTGVPDRFTGSGYGTDFTFTISTVQAEDLAVYFCQQDYSSPFTFGSGTKLEMK
B5: SC91.155 (antibody, V domains shown)
VH: B4 VH with T53S, S59A, S60Y, S75F, L82Q, K87R, N88D
VL: B4 VL with M29L, H31N, K45R, S50F, M106I
B6: SC91.111 (antibody, V domains shown)
VH: B4 VH with F29L, S59A, S60Y, L82Q, L86F
VL: B4 VL with D32N, S50Y, M106I
notes: copies: 2 + 2
B7: SC91.187 (antibody, V domains shown)
VH: B1 VH with A9P, V11F, R13K, L18V, M34V, I37V, M59L, K63N, F95Y
VL: B1 VL with D17E, N50K
B8: SC91.172 (antibody, V domains shown)
VH: B1 VH with E10D, V11L, R13K, A16T, L18V, I37V, N56T, F95Y, F101Y
VL: B1 VL with P45A, N50K
B9: SC91.129 (antibody, V domains shown)
VH: B1 VH with V11L, R13K, L18V, S31N, I37V, N56R, M59L, G66D, F95Y, F101Y
VL: B1 VL with V2A, T7S, N50K, S96T
notes: copies: 2 + 2
B10: SC91.149 (antibody, V domains shown)
VH: QVQLLQPGAELVKPGSSVKVSCKASGYTFTNYWMQWVKQRPGQGLEWIGEIDPSDTYTLYNQKFKGKATLTVDTSSSTAYMQLSSLTSEDSAVYYCARFGYYVDYWGQGTTLTVSS
VL: B1 VL with L38F, N50E, S68R
B11: SC91.138 (antibody, V domains shown)
VH: QVQLQQPGAELVMPGASVKLSCKASGYTFTNYWMHWVKQRPGQGLEWIGEIDPSDVYTTYNQKFKDKATLTVDKSSSTAYMQLINLTSEDSAVYYCARSGWDYFDYWGQGTALTVSS
VL: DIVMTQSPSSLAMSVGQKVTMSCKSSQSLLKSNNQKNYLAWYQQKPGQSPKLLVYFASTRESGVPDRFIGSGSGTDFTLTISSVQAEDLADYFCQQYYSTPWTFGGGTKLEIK

Target: T1, rat-his
Assay: Biacore

Kd [nM] | Binder
1.91 | B1

target: T5, Cyno-his (cynomolgus); assay: Biacore
T5 construct: extracellular domain; soluble analyte of the Biacore runs; also called cSCRx91-his; cBMPR1B-CHis

Kd [nM] | Binder
2.3 | B1

target: T2, hBMPR1B-His (human BMPR1B extracellular …); assay: Biacore

Kd [nM] | Binder
0.934 | B1

target: T6, human BMPR1B overexpressed on the surface of HEK293T cells (N-terminal Asp-Lys epitope tag, … (human, UniProt O00238 14-502)); assay: cell-based or functional assay

% live, Fab-saporin, 250pM [%] | Binder
24.9 | B2
20.5 | B3
24.3 | B4
29.3 | B5
20.3 | B6
19.1 | B7
19.6 | B8
23.1 | B9
18.3 | B10
21 | B11

target: T7, rat BMPR1B overexpressed on the surface of HEK293T cells (N-terminal Asp-Lys epitope tag, … (rat, UniProt A0A8I6A0G0 62-550)); assay: cell-based or functional assay
T7 sequence (chain, as listed by the source): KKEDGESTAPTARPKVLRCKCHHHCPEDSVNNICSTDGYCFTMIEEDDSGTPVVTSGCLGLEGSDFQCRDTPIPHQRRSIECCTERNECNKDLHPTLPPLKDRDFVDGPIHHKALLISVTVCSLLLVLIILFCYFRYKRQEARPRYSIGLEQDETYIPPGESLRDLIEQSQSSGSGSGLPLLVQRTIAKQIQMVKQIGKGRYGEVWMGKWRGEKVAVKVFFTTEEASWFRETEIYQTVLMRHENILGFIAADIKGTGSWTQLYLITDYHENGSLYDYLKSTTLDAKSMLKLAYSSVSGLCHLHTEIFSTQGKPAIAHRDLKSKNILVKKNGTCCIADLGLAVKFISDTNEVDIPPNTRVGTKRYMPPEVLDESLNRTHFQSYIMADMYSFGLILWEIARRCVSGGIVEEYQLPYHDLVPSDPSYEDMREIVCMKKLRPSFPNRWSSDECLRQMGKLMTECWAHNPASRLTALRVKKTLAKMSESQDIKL

% live, Fab-saporin, 250pM [%] | Binder
40.8 | B2
38.8 | B3
77.9 | B4
81.1 | B5
87.1 | B6
36.7 | B7
34.1 | B8
39.2 | B9
29.1 | B10
37.3 | B11

target: T8, cynomolgus BMPR1B overexpressed on the surface of HEK293T cells (N-terminal Asp-Lys epitope tag, … (cynomolgus)); assay: cell-based or functional assay

% live, Fab-saporin, 250pM [%] | Binder
34.7 | B2
25.4 | B3
34.6 | B4
45.1 | B5
52.9 | B6
24.2 | B7
18 | B8
18.5 | B9
20.7 | B10
17.6 | B11

target: T9, irrelevant Fc-tagged protein; assay: ELISA
T9 construct: ELISA control; also called irrelevant Fc construct

ELISA | Binder
0.041 | B1

target: T2, hBMPR1B-His (human BMPR1B extracellular …); assay: ELISA

ELISA | Binder
1.01 | B1

target: T10, BMPR1A-Fc (recombinant protein used in the screen 1 ELISA) (human, UniProt P36894 24-152, limits assumed); assay: ELISA
T10 construct: also called human BMPR1A; not shown: Fc
T10 sequence (P36894 24-152 limits assumed): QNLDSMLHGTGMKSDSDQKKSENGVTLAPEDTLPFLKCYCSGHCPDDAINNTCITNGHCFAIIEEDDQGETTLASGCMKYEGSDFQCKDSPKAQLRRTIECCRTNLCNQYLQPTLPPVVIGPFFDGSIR

ELISA | Binder
0.116 | B1

target: T3, hBMPR1B-Fc (human BMPR1B extracellular …); assay: ELISA

ELISA | Binder
0.462 | B1

target: T4, human BMPR1B coated on MSD plates …; assay: MSD ELISA, BMP4 blocked; design: concentration or dose not given beside the values

% inhibition [%] | Binder
65 | B2
79 | B3
79 | B4
79 | B5
69 | B6
83 | B7
81 | B8
83 | B9
84 | B10
79 | B11

Target: T1, rat-his
Assay: Biacore
Remark: another data set of the same source

Kd [nM] | binding result | Binder
5.35 |  | B2
< 2 |  | B3
 | binds | B4
 | binds | B5
3.25 |  | B7
1.18 |  | B8
0.561 |  | B9
< 0.1 |  | B10
1.84 |  | B11

target: T5, Cyno-his; assay: Biacore; remark: another data set of the same source

Kd [nM] | Binder
5.52 | B2
< 0.1 | B3
38.8 | B4
5.58 | B7
4.47 | B8
1.62 | B9
2 | B10
0.937 | B11

target: T2, hBMPR1B-His (human BMPR1B extracellular …); assay: Biacore; remark: another data set of the same source

Kd [nM] | Binder
6.44 | B2
1.21 | B3
3.12 | B4
1.12 | B5
6.67 | B6
2.86 | B7
1.96 | B8
0.564 | B9
1.03 | B10
0.658 | B11

target: T6, human BMPR1B overexpressed on the …; assay: flow cytometry

gMFI | Binder
17300 | B2
15800 | B3
27000 | B4
25300 | B5
25200 | B6
25900 | B7
24000 | B8
26900 | B9
27000 | B10
24500 | B11

target: T7, rat BMPR1B overexpressed on the surface …; assay: flow cytometry

gMFI | Binder
7510 | B2
6220 | B3
7690 | B5
3810 | B6
9680 | B7
9510 | B8
10200 | B9
10600 | B10
9660 | B11

target: T8, cynomolgus BMPR1B overexpressed on the …; assay: flow cytometry

gMFI | Binder
11500 | B2
10900 | B3
15800 | B4
14600 | B5
9120 | B6
14800 | B7
15000 | B8
16000 | B9
15400 | B10
16000 | B11

target: T6, human BMPR1B overexpressed on the …; assay: cell-based or functional assay; remark: another data set of the same source

% live, Fab-saporin, 100pM [%] | Binder
10.4 | B1

target: T7, rat BMPR1B overexpressed on the surface …; assay: cell-based or functional assay; remark: another data set of the same source

% live, Fab-saporin, 100pM [%] | Binder
18.2 | B1

target: T4, human BMPR1B coated on MSD plates …; assay: MSD ELISA, BMP2 blocked; design: concentration or dose not given beside the values

% inhibition [%] | Binder
35 | B2
29 | B3
47 | B4
49 | B5
36 | B6
37 | B7
51 | B8
40 | B9
47 | B10
10 | B11

target: T6, human BMPR1B overexpressed on the …; assay: flow cytometry; remark: another data set of the same source

Flow cytometry MFI | Binder
7480 | B1

target: T7, rat BMPR1B overexpressed on the surface …; assay: flow cytometry; remark: another data set of the same source

Flow cytometry MFI | Binder
5940 | B1

Source: patent US20190153103A1 (AbbVie / Abbott, published 2019)
